# Test results: patent publication US20080299140A1, “Immunogenic Composition and Peptide Sequences for Prevention and Treatment of an Hsv Condition” (priority 2002, published 2008)
# No end group written: not given here.
# Biological target: HLA-DR(α1*0101,α1*1301) (human)
# Assay: reference IC50 of the tracer peptide in the HLA class II competition assay
binder,measurement,value
TERVRLVTRHIYNREE (also: biotinylated when used as tracer) [B1 (21-36)],IC50,276 nM
